Assay results reported in article PMC3699631, “Posttranslational Modifications of the Histone 3 Tail and Their Impact on the Activity of Histone Lysine Demethylases In Vitro” (PLoS ONE, 2013).

Biological target: T1, human cc-KDM4A (Homo sapiens, UniProt O75164)
T1 construct: Truncated constructs of KDM4A and KDM4C containing only the catalytic cores (cc-KDM4A/cc-KDM4C); made in house
T1 sequence (O75164 1-350 limits assumed): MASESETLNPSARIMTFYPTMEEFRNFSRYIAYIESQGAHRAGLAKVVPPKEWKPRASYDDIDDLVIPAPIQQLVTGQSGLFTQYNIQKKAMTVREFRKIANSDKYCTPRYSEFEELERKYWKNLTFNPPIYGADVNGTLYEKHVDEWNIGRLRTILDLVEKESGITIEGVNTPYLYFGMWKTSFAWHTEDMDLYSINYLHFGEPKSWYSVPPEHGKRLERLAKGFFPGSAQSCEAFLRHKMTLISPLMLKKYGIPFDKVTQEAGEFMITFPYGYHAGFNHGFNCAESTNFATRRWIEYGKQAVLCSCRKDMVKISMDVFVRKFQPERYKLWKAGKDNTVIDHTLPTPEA
Experiment: FDH-assay enzyme kinetics of H3 peptide demethylation, truncated KDM4A
Type: biochemical
Parameters: key to K m / k cat / k cat /K m: 0 means no demethylation could be detected
Conditions: cc-KDM4A; for K m / k cat / k cat /K m / demethylation / catalytic activity (in words): FDH-assay; for K m: 50 mM HEPES (pH 7.5), 50 mM NaCl, 50 µM FeSO4, 500 µM α-KG, 500 µM ascorbate, 2 mM NAD, substrate 10–1000 µM, NADH fluorescence 15–30 minutes; for K m / k cat / k cat /K m: triplicate; for k cat / k cat /K m: pH 7.5; for k cat: NADH fluorescence; for demethylation / catalytic activity (in words): compared to H3(1–24)K9me3 where a change is stated
Protocol: The enzyme kinetics were measured using a Formaldehyde DeHydrogenase Assay (FDH-Assay) and the demethylation of substrates was confirmed when possible by MALDI-TOF-MS, see File S1 for details. The test solution contained 50 mM HEPES (pH 7.5), 50 mM NaCl, 50 µM FeSO4, 500 µM α-KG, 500 µM ascorbate, 2 mM NAD, approximately 0.05 unit of FDH and e.g. 4.88 µM KDM4C (enzyme concentration varied between batches). The reference solution was comprised of the same except substrate. The assay was initiated by adding various concentrations of H3 peptide substrates e.g. H3(1–24)K9me3 (10–1000 µM) and the increase in NADH fluorescence was measured over 15–30 minutes in 30 second intervals. Data analysis and kinetic values were obtained using programs Excel and GraphPad Prism® 5.0. For details, see File S1.
(§1) The standard deviations for k cat/K m were calculated using the statistic law of propagation of errors. Standard errors for Michaelis-Menten Kinetics were automatically given in GraphPad Prism®, with a 95% confidence interval. All enzyme kinetic curves were done in triplicate unless otherwise stated.
Test for activity of enzyme using the fluorescence FDH assay, determination of Vmax and Km of enzymes with substrate, expression and purification of cc-KDM4A and cc-KDM4C software and parameters for the FDH coupled assay, see Lohse et al.^21
as §1, with “kcat/ Km” for “k cat/K m”, “95 %” for “95%”

[1] = SD by propagation of errors, unit: min^−1 * µM^−1 * 10^3

| Substance | K m | k cat | k cat /K m [1] | demethylation / catalytic activity (in words) | k cat /K m (figures and text) | fold increase in k cat/K m (compared to H3(1–24)K9me3) |
| --- | --- | --- | --- | --- | --- | --- |
| H3(1–24)K9me2: truncated histone tail, 24 first amino acids from the N-terminus of H3, dimethylated lysine 9 | Below detection | Below detection | Below detection | could not be detected |  |  |
| H3(1–24)K9me3T11(ph): H3(1–24)K9me3 with phosphorylation of threonine 11 | 0 | 0 | 0 | no detectable turnover |  |  |
| H3(1–24)K9me3: truncated histone tail, 24 first amino acids from the N-terminus of H3, trimethylated lysine 9; control peptide | 131±16 | 1.1±0.04 | 8.4±1.1 |  | 8.4±1.1 min^-1 * μM^-1 * 10^3 |  |
| H3(1–24)K4me3K9me3: bis-tri-methylated substrate, trimethylated K4 in combination with H3K9me3 | 82±11 | 1.1±0.04 | 13.4±1.9 |  | 13±2 min^-1 * μM^-1 * 10^3 | 2 fold |
